According to the supplement of paper PMC9170038:

Tested on: MS2 coat protein
Assay: apparent KD of MS2 coat protein; higher = weaker reporter binding
Conditions: Eterna round: R107
Protocol: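 RNA-MaP round R107: designed RNA switches with theophylline, tryptophan, arginine or FMN aptamers are transcribed on-chip within common flanks. They are titrated with SNAP-549-labelled MS2 coat protein in RNA-MaP buffer (100 mM Tris pH 7.5, 80 mM KCl, 4 mM MgCl2), without ligand or with the indicated ligand. Median apparent KD per design.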

[1] = input ligand: theophylline 20 uM
[2] = input ligand: theophylline 2 mM
[3] = input ligand: tryptophan 2.4 mM

Sequence | apparent KD of MS2 coat protein (input ligand: arginine 13.2 mM) [µM] | apparent KD of MS2 coat protein (input ligand: none) [µM] | apparent KD of MS2 coat protein [1] [µM] | apparent KD of MS2 coat protein [2] [µM] | apparent KD of MS2 coat protein [3] [µM]
ACGUAAUGCAGAAGGAGCGUCUUAUUAAUACAUGAGGAUCACCCAUGUUAUAUUUAUGGUAGACAGGUAGGUCGCUGAAGUACGA [JR_SSArginiB_Sub008] | 0.00886 | 0.0118 | 0.0173 | 0.0132 | 0.0107
UAUUUGGUGCGCGAGCGUUGGAUAAUUGAUACCAGUGAAGAAGAGCGCCCUUGGCAGCGAAUCCUAACAUGAGGAUCACCCAUGU [5.S] | 0.0382 | – | 0.0632 | – | 0.0414
GGCCCUGCGAGCGCUCGCAGGGCCGCGGAUACCAGCGAGGUCCAUCGCCCUUGGCAGCCGAACAUGAGGAUCACCCAUGUCGGUU [#1 Same State - Theophylline A Attempt #12 (HarryS)] | 0.00598 | 0.0112 | 0.0123 | 0.0144 | 0.00996
AUUUACAUGGUCAUAUAUAUAUCGUCAGAUACCAGACUAGAUAUAGUCCCUUGGCAGCUGUUACAUGAGGAUCACCCAUGUUAUA [JR_Nu_ExcTheophyA_Sub019] | 0.0418 | – | 0.0958 | – | 0.109
GGACUAACCAGAAGGAGCGACACGCAGAAACUGCAAAAUCCUCCACACGAGGAUCACCCGUGUCAGGUAGGUCGCUGGUUAGUCG [ArgXB 16 #Zipper #MS2Left #StaticStem #Blueprint] | 0.0446 | 0.0753 | 0.0834 | 0.0861 | 0.0538
CACGGACGAGUGGAUCACCCUCGUAAUAACCGAGGACCGGUACGGCCGCCACUCGAAAACCGUGACCUGUACGAAAAGUGCAGGA | 0.0561 | 0.0887 | 0.21 | 0.531 | 0.0732
CCCAAAUAGAUCUUUGGAAUUUUACUCGAAGGAGCGUCAUAGUAGGCAGGUAGGUCGCGAGACAUGAGGAUCACCCAUGUAGAGA [kinmullin] | 0.0187 | 0.0537 | 0.0355 | 0.0458 | 0.0324
AUAAGUAAUGUUUCGUGUUUUAUUACAGAUACCAGACUAUACGUUGUCCCUUGGCAGCUGGAUUACAUGAGGAUCACCCAUGUUG [JR_ExcTheophyA_Sub003] | 0.0176 | – | 0.0265 | – | 0.0185
GGAUAUAGGGAACCGUAUCCGAAACCUGAAGGAGCGGCCGAAAGGCCAGGUAGGUCGCGGGAACAUGAGGAUCACCCAUGUAUUC [dancer] | 0.0311 | 0.0573 | 0.0718 | 0.0592 | 0.0554
AUAAGUAAUGUUUCGUGUAUUAUUACAGAUACCAGACUAUCCUAUGUCCCUUGGCAGCUGGAUUACAUGAGGAUCACCCAUGUUG [JR_ExcTheophyA_Sub001] | 0.0157 | – | 0.0203 | – | 0.0171
ACAUGAGGAUCACCCAUGUUCCUCGCCGAUACCAGUGAAGAAGAACGCCCUUGGCAGCGGAAAGAAUAUAUUGGAGAUGAUAUAU [6.U] | 0.111 | – | 0.252 | – | 0.225
GGGUCGGGCGCGGCCGCCACUGCGGUGGUGUGACAUGAGGAUCACCCAUGUUGUCAUGCGGCCCUUAGGACCGGGCGCCCGGCCC [#1 Exclusion - Tryptophan B Attempt #11 (HarryS)] | 0.0193 | 0.0425 | 0.0674 | 0.0701 | 0.0384
UGAUCCUACAGAGAUACCAGUGCCACUAAAUAACUAAACACAUGAGGAUCACCCAUGUAACACCCUUGGCAGCUCAACUAAAGGG [Same State Theophylline B GF16] | 0.0197 | – | 0.0255 | – | 0.0268
CUGCCAUGCAGAGAUACCAGUGAGCCCAUAACAUGAGGAUCACCCAUGUACGCCGCAGACCACCCUUGGCAGCUCUGCAUGGCAG [&#$*@] | 0.0217 | 0.0174 | 0.0184 | 0.0114 | 0.0166
GCGAUACGUACUGAUACCAGAGACAUGAGGAUCACCCAUGUCCCAUGAUCAUACCUCAGACUCCCUUGGCAGCAGGAUAAGUGAG [Exclusion Theophylline B GF2] | 0.0113 | – | 0.0151 | – | 0.012
UGUAUGUGAUCUGAUACCAGCUAGCGGAAACGCAGCUUGAGGAUCACCCAAGUGGAAAUAAGCCCUUGGCAGCAGAUCGCAUACU [Denovo 6 #StaticStem #AlternativeMS2] | 0.0997 | 0.246 | 0.139 | 0.0119 | 0.309
CCACUUUCUUUUAUCUUUCUUUCUUUGUUACGAGGACCGGUACGGCCGCCACUCGUGGUGUGUGGUACAUGAGGAUCACCCAUGU | 0.0231 | – | 0.0349 | 0.0329 | –
AUGCGGUGCGGAAGGAGCGAGUUUGCCUAUUUACAUGAGGAUCACCCAUGUCCUAAUGGGACUCAGGUAGGUCGCCGUUGUUGCA [Same State Arginine B GF30] | 0.042 | 0.045 | 0.0714 | 0.0479 | 0.0416

Sequence | apparent KD of MS2 coat protein (input ligand: arginine 13.2 mM) [µM] | apparent KD of MS2 coat protein (input ligand: none) [µM] | apparent KD of MS2 coat protein [1] [µM] | apparent KD of MS2 coat protein [2] [µM] | apparent KD of MS2 coat protein [3] [µM]
GGACUAACCAGAAGGAGCGACGCAAAGCAGAAACUGCAUCCUCCGCACGAGGAUCACCCGUGUCAGGUAGGUCGCUGGUUAGUCG [ArgBX 28] | 0.0188 | 0.0177 | 0.0247 | 0.0263 | 0.0217
ACAUGAGCAUCAGCCAUGUGUAUGACAUGACGAGGACCGGUACGGCCGCCACUCGACAUGAGGAUCACCCAUGUUGAGGAUCACA [Exclusion - Tryptophan A #1] | 0.00795 | – | 0.0112 | 0.0113 | –
GGAGGGACCAGAAGGAGCGACAUGAGGAUCACCCAUGUCUCCCGUUAUGGGAGUUCUUUAGGUCAGGUAGGUCGCUGGUCCCUCC [#1 Exclusion - Arginine B Attempt #6 (Inspired by Omei)] | 0.0557 | 0.158 | 0.0873 | 0.138 | 0.0861
UCGCUCUGGGUGAAUCCCGGAGAUGUGGAAGGAGCGGACGAAAGUCCAGGUAGGUCGCCAUCGAACAUGAGGAUCACCCAUGUAC [Same State - Arginine A (Freestyle 25)] | 0.0133 | 0.0888 | 0.338 | 0.0605 | 0.0218
UGGUGUAGGGUAAAUAGGCUGAGUACAGAAGGAGCGCGAAUAAACGCAGGUAGGUCGCUGGACUCCACAUGAGGAUCACCCAUGU [Same State Arginine A GF 28] | 0.0355 | 0.0284 | 0.0341 | 0.0233 | 0.0364
CUUGGCUGUGCGGCCGCCACUGGCUCAUCCUGCAUUACAUGAGGAUCACCCAUGUUGCGGCCUCCCAGGACCGGGCAUAGCCUGA [Usesties] | 0.127 | – | 0.702 | 0.684 | –
CUACAUUUGUAGAAACCGGUCAACAAUAAUCGAGGACCGGUACGGCCGCCACUCGAUGUGUUAUACACAUGAGGAUCACCCAUGU [Tryptophan A 14] | 0.0217 | – | 0.0247 | 0.0229 | –
GGGUGCGGGUGAAGGAGCGUGAAGACAUGAGGAUCACCCAUGUAGAGGCCCGAACAGGGUUCGCAGGUAGGUCGCACCCGUGCCC [#1 Same State - Arginine B Attempt #3 (HarryS)] | 0.012 | 0.0173 | 0.0228 | 0.0195 | 0.0164
UGUAUGUGAUCUGAUACCAGCUAAUAAAGCUUGAGGAUCACCCAAGUGGAGCGGAAACGCAGCCCUUGGCAGCAGAUCGCAUACU [Denovo 8 #StaticStem #AlternativeMS2] | 0.189 | 0.169 | 0.103 | 0.00993 | 0.224
GGCACAUAGUCGGCCGCCACUAGUGGGAAAUGGGAGAACAUGAGGAUCACCCAUGUAUAAUAGCCUAGGACCGGGACUAUGUGCC [Elk] | 0.0642 | 0.188 | 0.227 | 0.113 | 0.0553
CCUCAUGUGACGGCCGCCACUGAAGUGAUCGAAACAUGAGGAUCACCCAUGUUACGAUCAGAGAACAGGACCGGGUCAACAUGGG [Try B SS s1] | 0.00746 | 0.00932 | 0.0136 | 0.0131 | 0.00985
UCCGGACGUUCGGCCGCCACUAAUUUACAUGAGGAUCACCCAUGUGCCAGUGGUCCGCAGAGUAAUAGGACCGGGAACCUUGGCU [theeternabot_exclusion_MS2_Trp_B_10] | 0.0244 | – | 0.0308 | 0.0263 | –
CACAUUUUUAGAAGGGCGGUUUCACUCCUGCGAGGACCGGUACGGCCGCCACUCGACAUGAGGAUCACCCAUGUGGAGAAGUUAG [Laesedti] | 0.0184 | – | 0.0279 | 0.0305 | –
AAAAUCCUACCUGAGGAUCACCCUGGUGAAGGAGCGCCCGAAAGGGCAGGUAGGUCGCACCUGAGGAUCACCCAGGUAACCUAAA [ArgEX 13 #DoubleMS2 #OpenEnded #AlternativeMS2] | 0.0317 | 0.0492 | 0.0407 | 0.0441 | 0.047
UACAUGAGGAUCACCCAUGUAUAGAGGGAUACCAGUGUCAGUGAGCACCCUUGGCAGCCCGCGAACAAUGGGUGCGCUAAAUAGU [#19 Exclusion-TheophyllineA] | 0.0232 | – | 0.0753 | – | 0.0324
ACGUUUUAGUCGGCCGCCACUGAUCUCAUGUUCAACAUGAGGAUCACCCAUGUACCUUUUUUUAUCAGGACCGGGACGUAAUAGA [JR_SSTryptoB_Sub005] | 0.085 | – | 0.328 | 0.359 | –
GGCUUCAACUCGGCCGCCACUGGUGAUCCUCAUGUACAUGAGGAUCACCCAUGUACAUGAGACUACAGGACCGGGAGAUCAGCAA [Tryptophan B] | 0.0105 | – | 0.0288 | 0.0225 | –
